Publication PMC3068226 (Biochemistry, 2011)

Key:
[1] = molecular target: T1, BSA (Bos taurus, UniProt P02769)
[2] = format: in vivo, mouse; conditions: for change in kurtosis over time after injection: mouse ear, LS224 over 6 h, LS296 within 3 h
[3] = molecular target: T1, BSA; assay: Binding to BSA by fluorescence quenching of albumin tryptophan; conditions: double logarithmic plot (Eq. 6), less than 1 mol/mol dye to albumin

T1 sequence (P02769 25-607): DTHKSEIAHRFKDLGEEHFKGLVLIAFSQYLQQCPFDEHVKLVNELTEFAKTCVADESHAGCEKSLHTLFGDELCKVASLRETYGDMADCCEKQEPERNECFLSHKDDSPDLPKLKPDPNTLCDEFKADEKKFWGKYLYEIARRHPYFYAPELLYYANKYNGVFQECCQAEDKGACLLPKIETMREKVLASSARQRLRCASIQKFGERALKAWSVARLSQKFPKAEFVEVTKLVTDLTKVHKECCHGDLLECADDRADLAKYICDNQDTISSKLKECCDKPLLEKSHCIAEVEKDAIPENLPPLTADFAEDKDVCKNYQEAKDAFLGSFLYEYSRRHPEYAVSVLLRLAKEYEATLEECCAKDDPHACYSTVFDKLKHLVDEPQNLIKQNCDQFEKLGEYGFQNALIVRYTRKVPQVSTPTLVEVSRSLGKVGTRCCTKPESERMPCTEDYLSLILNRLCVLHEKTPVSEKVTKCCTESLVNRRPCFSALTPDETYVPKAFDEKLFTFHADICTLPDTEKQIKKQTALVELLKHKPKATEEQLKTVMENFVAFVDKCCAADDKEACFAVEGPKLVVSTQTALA

Compound	K, M^−1 (binding constants to BSA in PBS buffer) [1]	change in kurtosis over time after injection ([2]; ex/em 780/800 nm)	also measured
Cypate-DPhe-Cyclo(Cys-Tyr-DTrp-Lys-Thr-Cys)-Thr-OH (disulfide) [LS224]	51,000 M^−1	no changes in kurtosis	–
LS276-DPhe-Cyclo(Cys-Tyr-DTrp-Lys-Thr- Cys)-Thr-OH (disulfide) [LS296]	14,880 M^−1	dramatic changes	–
CC1(C)C(=CC=C2CCCC(C=CC3=[N+](CCCCCC(=O)[O-])c4ccc(S(=O)(=O)[O-])cc4C3(C)C)=C2Oc2ccc(S(=O)(=O)[O-])cc2)N(CCCCS(=O)(=O)[O-])c2ccc(S(=O)(=O)[O-])cc21.[Na+].[Na+].[Na+].[Na+] [IRdye800CW, reference compound]	–	–	binding constant K to BSA [1]: ~6,100 M^−1; initial kurtosis value at the first time point ([2]; mouse ear ROI, 2 min after injection): less than 1; time of peak fluorescence intensity in ROI after injection ([2]; mouse ear ROI, intravenous injection, ex/em 780/800 nm): 20 to 30 min
Cypate-Gly-Arg-Asp-Ser-Pro-Lys-OH [LS39]	76,000 M^−1	–	–
CC1(C)C(/C=C/C=C/C=C/C=C2\N(CCCCS(=O)(=O)O)c3ccc4ccccc4c3C2(C)C)=[N+](CCCCS(=O)(=O)[O-])c2ccc3ccccc3c21 [ICG, indocyanine green]	–	–	number of binding sites n on albumin [3]: 1.012 ± 0.0212
